# Measured values from PMC3069497.
# T1: Peptide C (bovine)
# T1 sequence (peptide): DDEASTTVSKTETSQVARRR
# Assays:
# [1] = target: bovine rhodopsin, photoactivated (Rho*) (bovine) (UniProt P02699)
# [2] = target: bovine rhodopsin, photoactivated (Rho*) (bovine) (UniProt P02699); remark: listed apart in the source
# Peptide C (bovine) = target: T1, Peptide C (bovine)
# UniProt P02699, sequence (P02699 whole entry): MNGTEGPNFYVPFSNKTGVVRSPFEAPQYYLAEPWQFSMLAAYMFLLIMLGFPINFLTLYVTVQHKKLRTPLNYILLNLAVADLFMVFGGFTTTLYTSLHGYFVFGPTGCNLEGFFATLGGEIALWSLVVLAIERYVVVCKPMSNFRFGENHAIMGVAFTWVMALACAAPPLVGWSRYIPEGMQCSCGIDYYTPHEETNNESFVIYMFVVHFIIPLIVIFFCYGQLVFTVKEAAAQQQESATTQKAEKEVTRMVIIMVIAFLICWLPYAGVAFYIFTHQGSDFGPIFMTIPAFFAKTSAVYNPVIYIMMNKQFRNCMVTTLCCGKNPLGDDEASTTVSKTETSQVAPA
decrease of the magnitude of the fluorescence change of Meta II decay [1] [%],KM of ROS (Rho*) phosphorylation [2] [µM],KM of peptide C phosphorylation (Peptide C (bovine)) [µM],Binder
35,3.4,320,"bovine GRK1 C-terminally truncated at residue 535 and tagged with hexahistidine (GRK1_(535)H6), wild type (enzyme) MDFGSLETVVANSAFIAARGSFDASSGPASRDRKYLARLKLPPLSKCEALRESLDLGFEGMCLEQPIGKRLFQQFLRTHEQHGPALQLWKDIEDYDTADDALRPQKAQALRAAYLEPQAQLFCSFLDAETVARARAGAGDGLFQPLLRAVLAHLGQAPFQEFLDSLYFLRFLQWKWLEAQPMGEDWFLDFRVLGRGGFGEVFACQMKATGKLYACKKLNKKRLKKRKGYQGAMVEKKILAKVHSRFIVSLAYAFETKTDLCLVMTIMNGGDIRYHIYNVDEDNPGFQEPRAIFYTAQIVSGLEHLHQRNIIYRDLKPENVLLDDDGNVRISDLGLAVELKAGQTKTKGYAGTPGFMAPELLLGEEYDFSVDYFALGVTLYEMIAARGPFRARGEKVENKELKQRVLEQAVTYPDKFSPASKDFCEALLQKDPEKRLGFRDGSCDGLRTHPLFRDISWRQLEAGMLTPPFVPDSRTVYAKNIQDVGAFSTVKGVAFEKADTEFFQEFASGTCPIPWQEEMIETGVFGDLNVWRPDG"
–,20,500,GRK1_(535)H6 N12A (enzyme) MDFGSLETVVAASAFIAARGSFDASSGPASRDRKYLARLKLPPLSKCEALRESLDLGFEGMCLEQPIGKRLFQQFLRTHEQHGPALQLWKDIEDYDTADDALRPQKAQALRAAYLEPQAQLFCSFLDAETVARARAGAGDGLFQPLLRAVLAHLGQAPFQEFLDSLYFLRFLQWKWLEAQPMGEDWFLDFRVLGRGGFGEVFACQMKATGKLYACKKLNKKRLKKRKGYQGAMVEKKILAKVHSRFIVSLAYAFETKTDLCLVMTIMNGGDIRYHIYNVDEDNPGFQEPRAIFYTAQIVSGLEHLHQRNIIYRDLKPENVLLDDDGNVRISDLGLAVELKAGQTKTKGYAGTPGFMAPELLLGEEYDFSVDYFALGVTLYEMIAARGPFRARGEKVENKELKQRVLEQAVTYPDKFSPASKDFCEALLQKDPEKRLGFRDGSCDGLRTHPLFRDISWRQLEAGMLTPPFVPDSRTVYAKNIQDVGAFSTVKGVAFEKADTEFFQEFASGTCPIPWQEEMIETGVFGDLNVWRPDG
–,18,350,GRK1_(535)H6 V9A (enzyme) MDFGSLETAVANSAFIAARGSFDASSGPASRDRKYLARLKLPPLSKCEALRESLDLGFEGMCLEQPIGKRLFQQFLRTHEQHGPALQLWKDIEDYDTADDALRPQKAQALRAAYLEPQAQLFCSFLDAETVARARAGAGDGLFQPLLRAVLAHLGQAPFQEFLDSLYFLRFLQWKWLEAQPMGEDWFLDFRVLGRGGFGEVFACQMKATGKLYACKKLNKKRLKKRKGYQGAMVEKKILAKVHSRFIVSLAYAFETKTDLCLVMTIMNGGDIRYHIYNVDEDNPGFQEPRAIFYTAQIVSGLEHLHQRNIIYRDLKPENVLLDDDGNVRISDLGLAVELKAGQTKTKGYAGTPGFMAPELLLGEEYDFSVDYFALGVTLYEMIAARGPFRARGEKVENKELKQRVLEQAVTYPDKFSPASKDFCEALLQKDPEKRLGFRDGSCDGLRTHPLFRDISWRQLEAGMLTPPFVPDSRTVYAKNIQDVGAFSTVKGVAFEKADTEFFQEFASGTCPIPWQEEMIETGVFGDLNVWRPDG
–,12,280,GRK1_(535)H6 L6A (enzyme) MDFGSAETVVANSAFIAARGSFDASSGPASRDRKYLARLKLPPLSKCEALRESLDLGFEGMCLEQPIGKRLFQQFLRTHEQHGPALQLWKDIEDYDTADDALRPQKAQALRAAYLEPQAQLFCSFLDAETVARARAGAGDGLFQPLLRAVLAHLGQAPFQEFLDSLYFLRFLQWKWLEAQPMGEDWFLDFRVLGRGGFGEVFACQMKATGKLYACKKLNKKRLKKRKGYQGAMVEKKILAKVHSRFIVSLAYAFETKTDLCLVMTIMNGGDIRYHIYNVDEDNPGFQEPRAIFYTAQIVSGLEHLHQRNIIYRDLKPENVLLDDDGNVRISDLGLAVELKAGQTKTKGYAGTPGFMAPELLLGEEYDFSVDYFALGVTLYEMIAARGPFRARGEKVENKELKQRVLEQAVTYPDKFSPASKDFCEALLQKDPEKRLGFRDGSCDGLRTHPLFRDISWRQLEAGMLTPPFVPDSRTVYAKNIQDVGAFSTVKGVAFEKADTEFFQEFASGTCPIPWQEEMIETGVFGDLNVWRPDG
–,11,350,GRK1_(535)H6 F15A (enzyme) MDFGSLETVVANSAAIAARGSFDASSGPASRDRKYLARLKLPPLSKCEALRESLDLGFEGMCLEQPIGKRLFQQFLRTHEQHGPALQLWKDIEDYDTADDALRPQKAQALRAAYLEPQAQLFCSFLDAETVARARAGAGDGLFQPLLRAVLAHLGQAPFQEFLDSLYFLRFLQWKWLEAQPMGEDWFLDFRVLGRGGFGEVFACQMKATGKLYACKKLNKKRLKKRKGYQGAMVEKKILAKVHSRFIVSLAYAFETKTDLCLVMTIMNGGDIRYHIYNVDEDNPGFQEPRAIFYTAQIVSGLEHLHQRNIIYRDLKPENVLLDDDGNVRISDLGLAVELKAGQTKTKGYAGTPGFMAPELLLGEEYDFSVDYFALGVTLYEMIAARGPFRARGEKVENKELKQRVLEQAVTYPDKFSPASKDFCEALLQKDPEKRLGFRDGSCDGLRTHPLFRDISWRQLEAGMLTPPFVPDSRTVYAKNIQDVGAFSTVKGVAFEKADTEFFQEFASGTCPIPWQEEMIETGVFGDLNVWRPDG
–,8.8,310,GRK1_(535)H6 A11E (enzyme) MDFGSLETVVENSAFIAARGSFDASSGPASRDRKYLARLKLPPLSKCEALRESLDLGFEGMCLEQPIGKRLFQQFLRTHEQHGPALQLWKDIEDYDTADDALRPQKAQALRAAYLEPQAQLFCSFLDAETVARARAGAGDGLFQPLLRAVLAHLGQAPFQEFLDSLYFLRFLQWKWLEAQPMGEDWFLDFRVLGRGGFGEVFACQMKATGKLYACKKLNKKRLKKRKGYQGAMVEKKILAKVHSRFIVSLAYAFETKTDLCLVMTIMNGGDIRYHIYNVDEDNPGFQEPRAIFYTAQIVSGLEHLHQRNIIYRDLKPENVLLDDDGNVRISDLGLAVELKAGQTKTKGYAGTPGFMAPELLLGEEYDFSVDYFALGVTLYEMIAARGPFRARGEKVENKELKQRVLEQAVTYPDKFSPASKDFCEALLQKDPEKRLGFRDGSCDGLRTHPLFRDISWRQLEAGMLTPPFVPDSRTVYAKNIQDVGAFSTVKGVAFEKADTEFFQEFASGTCPIPWQEEMIETGVFGDLNVWRPDG
–,6.1,410,GRK1_(535)H6 A18E (enzyme) MDFGSLETVVANSAFIAERGSFDASSGPASRDRKYLARLKLPPLSKCEALRESLDLGFEGMCLEQPIGKRLFQQFLRTHEQHGPALQLWKDIEDYDTADDALRPQKAQALRAAYLEPQAQLFCSFLDAETVARARAGAGDGLFQPLLRAVLAHLGQAPFQEFLDSLYFLRFLQWKWLEAQPMGEDWFLDFRVLGRGGFGEVFACQMKATGKLYACKKLNKKRLKKRKGYQGAMVEKKILAKVHSRFIVSLAYAFETKTDLCLVMTIMNGGDIRYHIYNVDEDNPGFQEPRAIFYTAQIVSGLEHLHQRNIIYRDLKPENVLLDDDGNVRISDLGLAVELKAGQTKTKGYAGTPGFMAPELLLGEEYDFSVDYFALGVTLYEMIAARGPFRARGEKVENKELKQRVLEQAVTYPDKFSPASKDFCEALLQKDPEKRLGFRDGSCDGLRTHPLFRDISWRQLEAGMLTPPFVPDSRTVYAKNIQDVGAFSTVKGVAFEKADTEFFQEFASGTCPIPWQEEMIETGVFGDLNVWRPDG
–,9.5,220,GRK1_(535)H6 I16A (enzyme) MDFGSLETVVANSAFAAARGSFDASSGPASRDRKYLARLKLPPLSKCEALRESLDLGFEGMCLEQPIGKRLFQQFLRTHEQHGPALQLWKDIEDYDTADDALRPQKAQALRAAYLEPQAQLFCSFLDAETVARARAGAGDGLFQPLLRAVLAHLGQAPFQEFLDSLYFLRFLQWKWLEAQPMGEDWFLDFRVLGRGGFGEVFACQMKATGKLYACKKLNKKRLKKRKGYQGAMVEKKILAKVHSRFIVSLAYAFETKTDLCLVMTIMNGGDIRYHIYNVDEDNPGFQEPRAIFYTAQIVSGLEHLHQRNIIYRDLKPENVLLDDDGNVRISDLGLAVELKAGQTKTKGYAGTPGFMAPELLLGEEYDFSVDYFALGVTLYEMIAARGPFRARGEKVENKELKQRVLEQAVTYPDKFSPASKDFCEALLQKDPEKRLGFRDGSCDGLRTHPLFRDISWRQLEAGMLTPPFVPDSRTVYAKNIQDVGAFSTVKGVAFEKADTEFFQEFASGTCPIPWQEEMIETGVFGDLNVWRPDG
–,13,410,GRK1_(535)H6 E7A (enzyme) MDFGSLATVVANSAFIAARGSFDASSGPASRDRKYLARLKLPPLSKCEALRESLDLGFEGMCLEQPIGKRLFQQFLRTHEQHGPALQLWKDIEDYDTADDALRPQKAQALRAAYLEPQAQLFCSFLDAETVARARAGAGDGLFQPLLRAVLAHLGQAPFQEFLDSLYFLRFLQWKWLEAQPMGEDWFLDFRVLGRGGFGEVFACQMKATGKLYACKKLNKKRLKKRKGYQGAMVEKKILAKVHSRFIVSLAYAFETKTDLCLVMTIMNGGDIRYHIYNVDEDNPGFQEPRAIFYTAQIVSGLEHLHQRNIIYRDLKPENVLLDDDGNVRISDLGLAVELKAGQTKTKGYAGTPGFMAPELLLGEEYDFSVDYFALGVTLYEMIAARGPFRARGEKVENKELKQRVLEQAVTYPDKFSPASKDFCEALLQKDPEKRLGFRDGSCDGLRTHPLFRDISWRQLEAGMLTPPFVPDSRTVYAKNIQDVGAFSTVKGVAFEKADTEFFQEFASGTCPIPWQEEMIETGVFGDLNVWRPDG
–,21,390,GRK1_(535)H6 V10A (enzyme) MDFGSLETVAANSAFIAARGSFDASSGPASRDRKYLARLKLPPLSKCEALRESLDLGFEGMCLEQPIGKRLFQQFLRTHEQHGPALQLWKDIEDYDTADDALRPQKAQALRAAYLEPQAQLFCSFLDAETVARARAGAGDGLFQPLLRAVLAHLGQAPFQEFLDSLYFLRFLQWKWLEAQPMGEDWFLDFRVLGRGGFGEVFACQMKATGKLYACKKLNKKRLKKRKGYQGAMVEKKILAKVHSRFIVSLAYAFETKTDLCLVMTIMNGGDIRYHIYNVDEDNPGFQEPRAIFYTAQIVSGLEHLHQRNIIYRDLKPENVLLDDDGNVRISDLGLAVELKAGQTKTKGYAGTPGFMAPELLLGEEYDFSVDYFALGVTLYEMIAARGPFRARGEKVENKELKQRVLEQAVTYPDKFSPASKDFCEALLQKDPEKRLGFRDGSCDGLRTHPLFRDISWRQLEAGMLTPPFVPDSRTVYAKNIQDVGAFSTVKGVAFEKADTEFFQEFASGTCPIPWQEEMIETGVFGDLNVWRPDG
